This is an account of results in US20060235215A1 (published 2006).

In this test the target is T1, Novel Protein PN23485, Similar to Hordeum vulgare Coproporphyrinogen III Oxidase, chloroplast precursor, prey … (Oryza sativa, UniProt Q7XPL2 165-318).
T1 construct: prey; AD fusion; output trait library; also called OsPN23485
T1 sequence: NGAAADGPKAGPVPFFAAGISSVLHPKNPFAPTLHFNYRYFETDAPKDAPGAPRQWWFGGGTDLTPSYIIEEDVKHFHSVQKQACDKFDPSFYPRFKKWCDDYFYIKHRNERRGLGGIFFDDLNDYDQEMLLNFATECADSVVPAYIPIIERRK
Briefly: yeast two-hybrid.

B1: Hypothetical Protein 006819-2510, Similar to Hemerocallis Senescence-Related Protein 5, bait fragment aa 1-273 (other)
chain: MAFRLSNSLLGILNAVTFLLSVPVLGGGIWLATRADGTECERYFSAPVIAFGVFLLLVSLAGLVGACCRVNCLLWFYLVAMFVLIVVLFCFTVFAFVVTNKGAGEAVSGRGYKEYRLGDYSNWLQKRMENSKNWNRIRSCLQDSKVCKKLQDKNWDRTQFFKADLSPLESGCCKPPSSCNFLYVSGTNWTKVPTNSSDPDCNTWVDDGTQLCYNCQSCKAGAVATLKRDWKRVAVVCIVFLVFIVIVYSLGCCAFRNNRRDNRGAYRGAAWKG
notes: bait; also called Os006819-2510; PN20462
For B1, the binding result is given as “binds”.
